According to publication PMC6044717 (ACS Omega, 2018):
pIC50, pKd, pKi: −log10 of the molar value.

Experiments:
[1] = target: Human recombinant integrin α5β1 (human) (UniProt P08648); test: fluorescence polarisation
[2] = target: fluorescein isothiocyanate (FITC)-conjugated GRGDSP peptide; test: fluorescence polarisation
Solubility in water = format: physicochemical; details: physiological pH and temperature

solubility in water (Solubility in water)	Compound	pIC50 [1]	pKi [1]	pKd [2]
	depsipeptide R-Glc-D (arginine–glycolic acid–aspartic acid)	2.95	3.34	
	Human recombinant integrin α5β1 (from UniProt P08648 42-1049; P05556 21-728) (complex)			6.68
not readily soluble	O=C(N[C@@H](Cc1ccccc1)C(=O)O)OCC1c2ccccc2-c2ccccc21 [Fmoc-F]			
	arginine–glycine–aspartic acid tripeptide (RGD)	4.57	4.97	
